Assay results as given in article PMC11814294, “A pathogen effector HaRxL10 hijacks the circadian clock component CHE to perturb both plant development and immunity” (Nature Communications, 2025).

B1: MBP-His-CHE (natural protein)
chain: not shown
notes: Vector pQLink (MBP-His-tag); Printed molecular weight 70.1 kD; source: E. coli BL21 (DE3), purified (amylose resin); not shown: MBP, N-terminal, kept; His, N-terminal, kept
B2: His-CHE (natural protein)
chain: not shown
notes: Vector pET28a (His-tag); source: E. coli BL21 (DE3), purified (Ni-NTA); not shown: His, N-terminal, kept

Tests used:
GST-His-ZTL [1] = molecular target: T1, GST-His-ZTL (Arabidopsis thaliana, UniProt Q94BT6 1-609, RED-NHS 2nd Generation fluorescent label (in the MST assay only)); assay: pull-down; MBP-His-CHE and GST-His-ZTL in equal amounts (about 5 ug), amylose resin, MBP column buffer (20 mM Tris-HCl pH 7.4, 0.2 M NaCl, 1 mM EDTA), 2-3 h at 4 °C; blots with anti-MBP and anti-GST; conditions: both partners purified
T1 construct: Vector pET-42a (GST-tag); Printed molecular weight 99 kD; Called GST-His-ZTL in the pull-downs and GST-ZTL in the MST assay; also called GST-ZTL; ZEITLUPE; source: E. coli BL21 (DE3), purified (GST-beads); not shown: GST, N-terminal, kept; His, N-terminal, kept
T1 sequence (Q94BT6 whole entry): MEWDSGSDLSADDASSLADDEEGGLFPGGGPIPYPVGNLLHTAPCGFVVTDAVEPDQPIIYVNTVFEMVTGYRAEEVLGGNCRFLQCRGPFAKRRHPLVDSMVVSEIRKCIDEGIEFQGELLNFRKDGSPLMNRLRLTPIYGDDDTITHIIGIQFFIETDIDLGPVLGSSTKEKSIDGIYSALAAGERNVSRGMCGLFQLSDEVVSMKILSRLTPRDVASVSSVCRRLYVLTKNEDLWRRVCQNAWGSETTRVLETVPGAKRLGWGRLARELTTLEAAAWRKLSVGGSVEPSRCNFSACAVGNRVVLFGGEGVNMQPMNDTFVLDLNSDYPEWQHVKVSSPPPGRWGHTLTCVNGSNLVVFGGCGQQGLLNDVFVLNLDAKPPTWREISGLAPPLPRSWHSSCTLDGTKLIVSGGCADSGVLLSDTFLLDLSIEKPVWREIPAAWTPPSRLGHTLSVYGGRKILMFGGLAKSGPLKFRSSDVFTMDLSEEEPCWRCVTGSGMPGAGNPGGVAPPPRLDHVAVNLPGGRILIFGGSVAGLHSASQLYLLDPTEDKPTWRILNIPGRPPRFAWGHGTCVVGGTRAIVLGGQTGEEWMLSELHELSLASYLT

GST-His-ZTL [2] = molecular target: T1, GST-His-ZTL; assay: MST; 50 nM RED-NHS-labelled GST-ZTL with serially diluted His-CHE, without or with 5 uM His-HaRxL10; 50 mM Tris-HCl pH 7.4, 150 mM NaCl, 10 mM MgCl2, 0.1% Pluronic F-127, Tween-20; 25 °C; Monolith NT.115; conditions: both partners purified

Binder	binding result (GST-His-ZTL [1])	binding result (GST-His-ZTL [2])
B1	binds	–
B2	–	binds
